The results in this text go back to article PMC6879610.

Test [1] concerns the target Env Du156.12 (HIV-1 (Du156.12)).
Another test addresses Env HxB2 (HIV-1 (HxB2)) (UniProt P04578).

PGZL1 W99A IgG (antibody) showed a neutralisation of Du156.12 (TZM-bl), fold decrease against PGZL1 in test [1] of over 10 fold. The substance further gave a neutralisation of HxB2 (TZM-bl), fold decrease against PGZL1 in the test with Env HxB2 (HIV-1 (HxB2)) of over 10 fold.
In test [1], PGZL1 F100A IgG (antibody) came in with a neutralisation of Du156.12 (TZM-bl), fold decrease against PGZL1 of over 10 fold. Also, the neutralisation of HxB2 (TZM-bl), fold decrease against PGZL1 with Env HxB2 (HIV-1 (HxB2)) was over 10 fold.
